Columns and labels:
Assay in all cases: chemical modification
Conditions in all cases: 37 °C, added salt not given, universal pH buffer: 5 mM CHES, 5 mM HEPES, 5 mM MES, degassed and charged with nitrogen
[1] = target: Cys3 (position 3, ---GGCPYADA)
[2] = target: Cys3 (position 3, ---KKCPYSAA)
[3] = target: Cys3 (position 3, ---YGCPAADA)
[4] = target: Cys3 (position 3, ---KKCPYSDA)
[5] = target: Cys3 (position 3, ---RRCPYSDA)
[6] = target: Cys3 (position 3, ---YGCAAAAA)
[7] = target: Cys3 (position 3, ---YGCAAADA)
[8] = target: Cys3 (position 3, ---KKCPYSAD)
[9] = free peptide, 2-4Zn(II) absent. Peptide-a of this series, which lacks Cys, is described as a random coil without zinc complex.
[10] = peptide (4 µM) in binding complex with the tetranuclear zinc complex 2-4Zn(II) (14 µM), alpha-helical conformation induced by the complex

B1: peptide-e (Cys-Pro-Tyr-Ala glutaredoxin-mimicking tag peptide) (synthetic construct) (peptide)
chain: GGCPYADAAADAAADAAAD
pKa [1, 9]: 8.48 | pKa [1, 10]: 7.46

B2: peptide-k (helixD2-tag peptide) (synthetic construct) (peptide)
chain: KKCPYSAADAAADAAADAAAD
pKa [2, 9]: 7.95 | pKa [2, 10]: 7.14

B3: peptide-f (synthetic construct) (peptide)
chain: YGCPAADAAADAAADAAAD
pKa [3, 9]: 8.93 | pKa [3, 10]: 7.80

B4: peptide-g (synthetic construct) (peptide)
chain: KKCPYSDAAADAAADAAAD
pKa [4, 9]: 8.04 | pKa [4, 10]: 7.13

B5: peptide-h (synthetic construct) (peptide)
chain: RRCPYSDAAADAAADAAAD
pKa [5, 9]: 8.02 | pKa [5, 10]: 7.18

B6: peptide-i (D4-tag peptide) (synthetic construct) (peptide)
chain: YGCAAAAAADDDDGDDDD
pKa [6, 9]: 8.96 | pKa [6, 10]: 8.22

B7: peptide-d (Asp-rich alpha-helical tag peptide) (synthetic construct) (peptide)
chain: YGCAAADAAADAAADAAAD
pKa [7, 9]: 8.89 | pKa [7, 10]: 7.94

B8: peptide-j (synthetic construct) (peptide)
chain: KKCPYSADAAADAAADAAAD
pKa [8, 9]: 7.94 | pKa [8, 10]: 7.08
